PMC2668188, “In Vitro Recombination Catalyzed by Bacterial Class 1 Integron Integrase IntI1 Involves Cooperative Binding and Specific Oligomeric Intermediates”

Key:
[1] = target: T1, IntI1(His)6 integron integrase (Pseudomonas aeruginosa Pa695 (class 1 …, UniProt Q7BP41 1-337)); assay: EMSA; filter binding; preincubated with dsattI1 (0.1 pmol); binding strongly increased, almost to bsattC level; EMSA: 0.1 pmol DNA, 1-15 pmol IntI1 in 20 µl, 20 min at 4°C, 1% agarose at 4°C; filter binding wash: HEPES 20 mM pH 7.5, MnCl2 10 mM, NaCl 30 mM (binding buffer itself not given); details: protein: recombinant; tags: His6; chain copies: 2; label: 5' 32P; blunt
T1 sequence: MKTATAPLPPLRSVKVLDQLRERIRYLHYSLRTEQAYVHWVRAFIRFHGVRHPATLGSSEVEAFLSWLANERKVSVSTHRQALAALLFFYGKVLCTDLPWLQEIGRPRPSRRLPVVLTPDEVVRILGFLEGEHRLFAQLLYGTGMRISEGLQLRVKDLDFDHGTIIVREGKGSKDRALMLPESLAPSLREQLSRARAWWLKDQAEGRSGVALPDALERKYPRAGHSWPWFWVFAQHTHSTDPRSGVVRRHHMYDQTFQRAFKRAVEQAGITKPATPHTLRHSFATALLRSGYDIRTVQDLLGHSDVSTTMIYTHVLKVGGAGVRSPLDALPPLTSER

[2] = target: T1, IntI1(His)6 integron integrase; assay: EMSA; EMSA: 0.1 pmol DNA, 1-15 pmol IntI1 in 20 µl, 20 min at 4°C, 1% agarose at 4°C; filter binding wash: HEPES 20 mM pH 7.5, MnCl2 10 mM, NaCl 30 mM (binding buffer itself not given); details: protein: recombinant; tags: His6; chain copies: 2; label: 5' 32P; blunt

B1: dsattC (dsDNA)
DNA 1: CGCCCGTCTAACAATTCGTTCAAGCCGACGTTGCTTCGTGGCGGCGCTTGCGTGCTACGCTAAGCTTCGCACGCCGCTTGCCACTGCGCACCGCGGCTTAACTCAGGCGTTAGATGCACT
DNA 2: AGTGCATCTAACGCCTGAGTTAAGCCGCGGTGCGCAGTGGCAAGCGGCGTGCGAAGCTTAGCGTAGCACGCAAGCGCCGCCACGAAGCAACGTCGGCTTGAACGAATTGTTAGACGGGCG
Q: Does B1 bind [1]?
A: binds

B2: dsattI1 (dsDNA)
DNA 1: ACGCCGTGGGTCGATGTTTGATGTTATGGAGCAGCAACGATGTTACGCAGCAGGGCAGTCGCCCTAAAACAAAGTTAGGTGGCTCAATGAGCATCATTGC
DNA 2: GCAATGATGCTCATTGAGCCACCTAACTTTGTTTTAGGGCGACTGCCCTGCTGCGTAACATCGTTGCTGCTCCATAACATCAAACATCGACCCACGGCGT
Q: Does B2 bind [2]?
A: binds
